In patent US20220267469A1 (LIPUM, published 2022):
Residue numbers refer to the chain shown, from its start. In names and notes the source's numbering stands.

B1: S-SL048-46 hIgG4 S228P (antibody, V domains shown)
VH: QVQLVQSGAEVKKPGASVKVSCKASGYTFTSYNMHWVRQAPGQGLEWMGVINPGDGATSYNQKFQGRVTMTRDTSTSTVYMELSSLRSEDTAVYYCARDYYGSSPLGYWGQGTLVTVSS
VL: DIQMTQSPSSLSASVGDRVTITCRASSSISYLNWYQQKPGKAPKLLIYAASSLASGVPSRFSGSGSGTDFTLTISSLQPEDFATYYCHQRSSSPTFGQGTKLEIKR
notes: also called clone 46; mAb46
B2: S-SL048-116 hIgG4 S228P (antibody, V domains shown)
VH: B1 VH with N61A, Q65K
VL: B1 VL with S27P, L32M, A50T
notes: also called mAb116
B3: S-SL048-48 hIgG4 S228P (antibody, V domains shown)
VH: B1 VH with M48I, N61A
VL: DIQMTQSPSSLSASVGDRVTITCRASPSISYMNWYQQKPGKAPKLLIYATSRLQSGVPSRFSGSGSGTDFTLTISSLQPEDFATYYCHQRSSSPTFGQGTKLEIK
notes: Tested as human IgG4 S228P
B4: S-SL048-65 hIgG4 S228P (antibody, V domains shown)
VH: B1 VH with M48I, N61A, Q65K
VL: B3 VL with R24S, P27Q, M32L, A49D, T50A, R52S, Q54P
notes: Tested as human IgG4 S228P
B5: S-SL048-103 hIgG4 S228P (antibody, V domains shown)
VH: B1 VH with N61A, Q65K
VL: B3 VL with P27S, N33H, R52S, Q54A
notes: Tested as human IgG4 S228P
B6: S-SL048-41 hIgG4 S228P (antibody, V domains shown)
VH: B1 VH with M48I, N52Y, N61A, Q65K
VL: B3 VL with P27S, Q54P
notes: Tested as human IgG4 S228P
B7: S-SL048-66 hIgG4 S228P (antibody, V domains shown)
VH: B1 VH with Q65K
VL: B3 VL with R24S, P27Q, A49D, T50A, R52S, Q54A, S93T
notes: Tested as human IgG4 S228P

biological target: T1, Human BSSL (bile salt-stimulated lipase), native (human, UniProt P19835 21-753); assay: cell-based or functional assay
T1 sequence: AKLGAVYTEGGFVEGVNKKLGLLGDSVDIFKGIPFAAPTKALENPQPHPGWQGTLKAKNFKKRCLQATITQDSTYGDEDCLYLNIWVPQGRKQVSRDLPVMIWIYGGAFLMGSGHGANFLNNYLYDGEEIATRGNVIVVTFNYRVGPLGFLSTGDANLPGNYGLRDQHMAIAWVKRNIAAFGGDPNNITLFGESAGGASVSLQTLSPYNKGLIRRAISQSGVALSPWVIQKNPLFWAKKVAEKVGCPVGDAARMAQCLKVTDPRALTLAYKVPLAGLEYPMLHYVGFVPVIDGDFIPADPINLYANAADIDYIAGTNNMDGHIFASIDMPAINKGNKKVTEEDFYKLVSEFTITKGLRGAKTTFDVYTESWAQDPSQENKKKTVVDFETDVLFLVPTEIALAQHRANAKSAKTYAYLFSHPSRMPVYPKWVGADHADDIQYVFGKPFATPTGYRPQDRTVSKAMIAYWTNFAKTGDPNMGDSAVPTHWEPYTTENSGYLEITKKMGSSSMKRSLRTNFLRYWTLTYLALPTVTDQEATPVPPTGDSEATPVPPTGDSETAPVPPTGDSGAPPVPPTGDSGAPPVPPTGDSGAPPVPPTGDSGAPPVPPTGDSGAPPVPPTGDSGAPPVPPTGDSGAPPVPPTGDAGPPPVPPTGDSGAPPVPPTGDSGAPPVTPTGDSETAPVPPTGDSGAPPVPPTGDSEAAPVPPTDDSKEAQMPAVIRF

Binder	BSSL hydrolysis of triglycerides, relative value (no antibody = 100%); 0.19 ug antibody [%]	BSSL hydrolysis of triglycerides, relative value (no antibody = 100%); 0.38 ug antibody [%]	BSSL hydrolysis of triglycerides, relative value (no antibody = 100%); 0.75 ug antibody [%]	BSSL hydrolysis of triglycerides, relative value (no antibody = 100%); 1.5 ug antibody [%]	BSSL hydrolysis of triglycerides, relative value (no antibody = 100%); 3.0 ug antibody [%]	BSSL hydrolysis of triglycerides, relative value (no antibody = 100%); 6.0 ug antibody [%]
B1	105	123	121	113	119	126
B2	105	112	100	96.2	106	108

biological target: T1, Human BSSL (bile salt-stimulated …); assay: cell-based or functional assay; remark: another data set of the same source

Binder	BSSL hydrolysis of cholesterol esters, relative value (no antibody = 100%); 0.19 ug antibody [%]	BSSL hydrolysis of cholesterol esters, relative value (no antibody = 100%); 0.38 ug antibody [%]	BSSL hydrolysis of cholesterol esters, relative value (no antibody = 100%); 0.75 ug antibody [%]	BSSL hydrolysis of cholesterol esters, relative value (no antibody = 100%); 1.5 ug antibody [%]	BSSL hydrolysis of cholesterol esters, relative value (no antibody = 100%); 3.0 ug antibody [%]	BSSL hydrolysis of cholesterol esters, relative value (no antibody = 100%); 6.0 ug antibody [%]
B1	95.7	99	97.6	88.3	93.5	97.7
B2	104	107	102	103	107	107

biological target: T2, Mouse BSSL, recombinant (mouse, UniProt Q64285 21-599); assay: SPR steady state, hIgG4 S228P captured by anti-Fab
T2 construct: Bought (R&D Systems, Cat. no 5658-CE); also called mBSSL; murine BSSL
T2 sequence: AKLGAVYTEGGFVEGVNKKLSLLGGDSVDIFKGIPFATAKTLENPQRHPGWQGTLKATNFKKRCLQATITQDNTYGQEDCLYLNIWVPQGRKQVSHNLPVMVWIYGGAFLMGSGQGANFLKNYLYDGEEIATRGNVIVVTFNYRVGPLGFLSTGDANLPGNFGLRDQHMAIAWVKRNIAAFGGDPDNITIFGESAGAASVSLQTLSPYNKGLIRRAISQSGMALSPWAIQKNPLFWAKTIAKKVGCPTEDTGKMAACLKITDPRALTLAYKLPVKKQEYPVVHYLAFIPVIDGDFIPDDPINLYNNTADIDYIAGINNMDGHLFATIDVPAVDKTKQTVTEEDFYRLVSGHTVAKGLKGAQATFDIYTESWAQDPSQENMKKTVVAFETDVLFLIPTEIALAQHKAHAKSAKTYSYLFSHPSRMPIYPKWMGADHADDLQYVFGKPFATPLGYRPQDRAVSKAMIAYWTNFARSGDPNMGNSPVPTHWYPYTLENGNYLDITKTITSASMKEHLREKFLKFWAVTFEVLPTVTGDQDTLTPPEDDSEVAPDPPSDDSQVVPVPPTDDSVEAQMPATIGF
Procedure, shortened: (§1)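 hIgG4 S228P captured on an immobilized anti-Fab surface; five BSSL concentrations injected, 1:5 dilutions from 50 nM (human) or from 500 nM (mouse). Human BSSL: single-cycle kinetics, 1:1 fit. Mouse BSSL: KD from steady-state equilibrium response versus concentration. Regeneration with 10 mM glycine-HCl pH 2.1.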

Binder	Kd [µM]
B1	0.024
B3	0.041
B4	0.03
B5	0.199
B6	0.079
B2	0.052
B7	0.083

biological target: T1, Human BSSL (bile salt-stimulated …); assay: SPR single cycle kinetics, hIgG4 S228P captured by anti-Fab
Procedure, shortened: as §1

Binder	Kd [µM]
B1	0.0037
B3	0.0008
B5	0.0017
B6	0.0012
B2	0.0006
B7	0.008

biological target: T2, Mouse BSSL, recombinant; assay: SPR steady state, captured by anti-Fab, Absolute Antibody batch
Description: (§2) Kinetic parameters of the hIgG4 S228P clones were determined by SPR using BIACORE® T200 (GE Healthcare). An anti-Fab antibody (GE #28958325) was immobilized on a CM5 S sensor chip by primary amine coupling using NHS-EDC chemistry. The hIgG4 antibodies were captured by the anti-Fab antibody, and subsequently, five different concentrations of hBSSL (1:5 dilutions, 0.08-50 nM) or mBSSL (1:2 dilutions, 50-800 nM) were injected over the surface. The sensor chip surface was regenerated with 10 mM glycine-HCl pH 2.1. For binding to human BSSL, single cycle kinetic data was fitted to a 1:1 binding model and kinetic parameters were retrieved using software BlAevaluation. For mouse BSSL, a steady state analysis was performed by plotting the response level at equilibrium against each concentration, and KD values were retrieved by the BlAevalution software.

Binder	Kd [µM]
B1	0.055
B2	0.04

biological target: T3, Biotinylated human BSSL (human, UniProt P19835 21-753, Biotinylated on glycosacarides, 30-40 biotin/BSSL); assay: flow cytometry displacement assay; 0.5 ug antibody, 1 ug b-hBSSL
T3 construct: hBSSL biotinylated in house; also called b-hBSSL; human BSSL-biotin
T3 sequence: T1 sequence
Description: (§3) The 28 BSSL-specific hIgG4 antibodies and the five reference antibodies at different concentrations (ranging from 0.5 μg to 3.0 μg per reaction; see Table 10) were added to b-hBSSL (1 μg per reaction, see Table 2) in round-bottom polystyrene tubes, lx PBS (pH 7.4) was added to a final volume of 20 μl and the antibody/b-hBSSL mixtures were incubated for 30 min. at +4° C. to facilitate binding of antibodies to BSSL. Buffy coat (50 μl) was then added to each antibody/b-hBSSL mixture and incubation continued for another 30 min at +4° C. Thereafter, 2 ml of FACS lysing solution (BD Biosciences) was added and the cells were incubated for 10 min at room temperature in order to lyse erythrocytes and fix the white blood cells. The cells were then centrifuged for 5 min. at 200×g, the resulting pellets were washed by adding 2 ml of FACS buffer (1×PBS supplemented with 1% FCS and 0.1% NaN3) and centrifuged again. Finally, the supernatants were discarded and the cells were resuspended in the last drop of liquid, approximately 50 μl.
(§4) 5 μl of BV421-labelled anti-human CD14 (BD Biosciences) and 5 μl of BB515-labelled streptavidin (BD Biosciences) was added to each tube and incubated for 30 min, at +4° C., protected from light. Thereafter, cells were washed twice with FACS buffer, resuspended in 500 μl FACS buffer, and run on BD LSRII flow cytometer (BD Biosciences). Finally, data were analyzed using FlowJo software (BD Biosciences).

Binder	percentage reduction of b-hBSSL binding to CD14+ monocytes [%]
B3	28
B4	5
B5	12
B6	12
B7	12

biological target: T3, Biotinylated human BSSL; assay: flow cytometry displacement assay; 1.0 ug antibody, 1 ug b-hBSSL
Description: as §3, §4

Binder	percentage reduction of b-hBSSL binding to CD14+ monocytes [%]
B3	23
B4	23
B5	-1
B6	29
B7	12

biological target: T3, Biotinylated human BSSL; assay: flow cytometry displacement assay; 1.5 ug antibody, 1 ug b-hBSSL
Description: as §3, §4

Binder	percentage reduction of b-hBSSL binding to CD14+ monocytes [%]
B1	43
B3	50
B4	21
B5	26
B6	51
B2	58
B7	39

biological target: T3, Biotinylated human BSSL; assay: flow cytometry displacement assay; 2.0 ug antibody, 1 ug b-hBSSL
Description: as §3, §4

Binder	percentage reduction of b-hBSSL binding to CD14+ monocytes [%]
B3	61
B4	35
B6	71
B7	43

biological target: T3, Biotinylated human BSSL; assay: flow cytometry displacement assay; 3.0 ug antibody, 1 ug b-hBSSL
Description: as §3, §4

Binder	percentage reduction of b-hBSSL binding to CD14+ monocytes [%]
B1	61
B3	68
B4	39
B5	69
B6	72
B2	64
B7	51

biological target: T1, Human BSSL (bile salt-stimulated …); assay: SPR single cycle kinetics, captured by anti-Fab, Absolute Antibody batch
Description: as §2

Binder	Kd [µM]
B1	0.0038
B2	0.0005
